Data: the supplement of paper PMC9732359
± gives the uncertainty stated by the source.

Assay: protein stability index of a GFP-peptide fusion (yeast GPS) (PSI 1-4); higher = more stable; sorted into four equal gates, so the index is relative within each strain
Conditions: doa10∆
Procedure, shortened: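 For each peptide, the protein stability index sums the read frequency in every gate after multiplying it by the gate number. Read frequencies came from plasmids that were PCR-amplified from each gate and Illumina-sequenced, with reads assigned to strains by barcodes. The gates were four equal bins of GFP/Cherry fluorescence ratio applied to mid-log yeast in leucine-free medium carrying a pooled library of tiled 17-residue yeast protein peptides fused downstream of GFP on a Cherry-expressing plasmid.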

Sequence	protein stability index
IDESMPDTAIDSQMDEA [GRR1]	3.01 ± 0.093
IDIDKLIQLGVKPLESS [SRP72]	3.19 ± 0.086
IDVMKSQIIPLMKKACY [SNU114]	2.23 ± 0.094
IDVNLNFARQLLFNNDF [RRP40]	2.93 ± 0.064
IEDKENSESTTQGGNVN [RPT5]	3.59 ± 0.14
IEELDNPMVPSSVNEDT [PRP8]	3.26 ± 0.075
IEGVVILKKNPDYREEE [RPN1]	3.06 ± 0.08
IEHPMTSAIEVLVGSCA [RPN1]	1.94 ± 0.043
IEIKISDPLTVFSESCS [SNU114]	2.33 ± 0.071
IEINEDNSQDDQDRGAA [RRI2]	3.24 ± 0.18
IELLSDLINILEKKGFS [LIN1]	1.22 ± 0.075
IELNFDAVKDFKLGKFN [QCR2]	3.31 ± 0.26
IEPELFNGYNPEKKEMI [FAS2]	3.18 ± 0.095
IERIGHLLSINYGEKEE [PCI8]	1.32 ± 0.06
IGAELKREESESAAVYN [SNF2]	2.99 ± 0.087
IGAGVPSLEVASEYIET [FAS1]	3.38 ± 0.15
IGARSQGAKTYLERTLD [PRE5]	3.36 ± 0.13
IGDDGYDLLISTLTTIS [SRB5]	2.18 ± 0.054
IGGLLSKVREEVGDVCI [RPO31]	2.13 ± 0.1
IGIVDYEAGASHGNPVV [FAS1]	3.01 ± 0.068
IGQSEELSDKEIYTVED [ISW2]	3.35 ± 0.13
IGTADIFIRQLKENEEN [BRR2]	3.61 ± 0.12
IGVIQLAHYVVTAKLLG [FAS1]	1.51 ± 0.066
IGWCKEDPKRRADTMDF [YJL039C/NUP192]	3.16 ± 0.21
IHKRYIDLEAPVQIVKR [RPS20]	2.5 ± 0.13

Sequence	protein stability index
IHTQLSEIKQQINKAQI [YJL039C/NUP192]	2.73 ± 0.12
IIERYIKSKADAWVSAA [PRP8]	1.86 ± 0.082
IIGHNPDENKTRVRLPS [RPL2A]	2.93 ± 0.074
IIKRSNGQSLSPVRSDS [YMR153W/NUP53]	2.64 ± 0.093
IITKNENFLKEVFQLRI [GAL11]	1.56 ± 0.091
IITNINAIFLSSEQDYS [YCG1]	2.54 ± 0.078
IIVKDKSNDSEGDFLKS [POP1]	3.06 ± 0.3
IKAFMDSTIGNSKVDMK [IRR1]	2.57 ± 0.27
IKDTANDNDITVKENES [UBP6]	2.88 ± 0.1
IKEDIEKFDLERVTALK [SMC1]	3.63 ± 0.21
IKEKFDEFIKTHEDLPK [IRR1]	2.7 ± 0.1
IKELRSKGYPIQFLTIG [FAS1]	1.87 ± 0.11
IKESSKKIKGKSIQDIV [SRP21]	3.26 ± 0.077
IKGIREYEEWQKSVSLL [YDL116W/NUP84]	2.08 ± 0.14
IKGNGESDETTTDNNNS [RPT1]	3.15 ± 0.15
IKIEDFVDDMLRDYRFE [SNF5]	3 ± 0.068
IKILGSEGYQKTFSRLD [RPN4]	1.28 ± 0.089
IKKMLHLVWMKGTNDEG [YCS4]	3.17 ± 0.2
IKLGSTAIGIATKEGVV [PUP2]	1.54 ± 0.11
IKNGRIYFTVPNEFEIQ [RGR1]	2.62 ± 0.06
IKNIGKSLKNNFYRPLL [YML103C/NUP188]	2.6 ± 0.08
IKQTFKNDLFVIWSEDN [RPO21]	2.13 ± 0.057
IKTRTVHELSKRVHTLL [ISW2]	1.37 ± 0.091
IKVENLNDTTEKSKALE [SMC2]	3.07 ± 0.082
ILEDDFAVALKNEPDYS [CDC53]	3.3 ± 0.088

Sequence	protein stability index
ILGIHTSKMNLSEDVNL [RPT2]	3.03 ± 0.12
ILINTARIHAQNYLKTY [PRE9]	2.01 ± 0.085
ILLEPIYEVDITVHAPL [SNU114]	2.57 ± 0.049
ILLQHKEKLTVQDCRYS [POP1]	2.53 ± 0.054
ILLSHHRASPADVSIKS [POP5]	2.79 ± 0.24
ILNDIETLEHNPVALEQ [BRR2]	2.95 ± 0.08
ILPQQSKLKLKNLLRKN [ECM29]	2.39 ± 0.089
ILTGTPLQNNLPELWAL [SNF2]	2.24 ± 0.05
ILTSLMRSKLEKLTLVT [CSN9]	2.42 ± 0.081
ILVPDLYHLVIMKFQSL [ECM29]	1.28 ± 0.081
IMAKRPFDKKSNSALFR [FAS1]	2.84 ± 0.059
IMDNDPVLFNRQPSLHK [RPO21]	1.77 ± 0.074
IMWQLLDGVSYLHQNWV [SSN3]	1.61 ± 0.074
INAQGEEIVVVASADYE [PRP8]	2.91 ± 0.09
INIQKKLEPKEIVRDIL [SIR4]	3.05 ± 0.085
INLTQTYGISVVDVALK [NUT1]	2.24 ± 0.077
INQIFSPEEQRSLLQEA [GAL11]	2.95 ± 0.12
INSGTFVKVTKATLELL [RPL7A]	3.01 ± 0.1
IPDMSKNVELGWKPLRY [SNU114]	3.29 ± 0.24
IPGEEVEETEVPTVPPS [MED4]	2.66 ± 0.11
IPIGHVHVIHFQHADNS [AAR2]	2.86 ± 0.11
IPQDFENEVSDIDVTIV [ESC2]	2.96 ± 0.096
IPSIPNPIANHTVTNSP [SNF5]	2.46 ± 0.039
IPTKESLTRDFEQCCKE [YIL149C/MLP2]	2.81 ± 0.078
IPVYCFSHPAHQQRMSR [YCG1]	1.88 ± 0.037

Sequence	protein stability index
IPYSRNAPAWFKLSSES [RPS13]	1.93 ± 0.058
IQDSNGDVKNMEDVKIQ [SWI3]	2.86 ± 0.071
IQEFLVVIEKRRKKILN [GRR1]	2.92 ± 0.091
IQEYQLCDNFNHFSLSY [COR1]	2.35 ± 0.049
IQKQIETIQADLNHVTE [SMC2]	2.96 ± 0.047
IQRTRERKKSIGSQRGR [DSN1]	2.94 ± 0.077
IQWYKSLLEKDIDAVNG [ISW2]	2.73 ± 0.085
IRAQNFKSALANLEDII [RRP6]	1.89 ± 0.06
IRFVCLSNCLANARDFG [BRR2]	2.09 ± 0.053
IRIFRSELQRLSHENNV [RPT5]	2.67 ± 0.11
IRIYDLGKKKATVDEFP [RPL10]	1.47 ± 0.054
IRKLLEKINRMIIFLKN [CSI1]	1.81 ± 0.079
IRKLVKNGTIVKKAVTV [RPL19A]	2.88 ± 0.17
IRKQPDDIINNDEPSHK [SIR2]	2.91 ± 0.065
IRKSETSGRYASYRICM [RPB5]	2.57 ± 0.088
IRKTPLAQKKAHLAEIQ [RPL3]	2.19 ± 0.1
ISKHSKQAIYTRATASE [RPS25A]	1.98 ± 0.056
ISLIPELSVVLSGIIQD [RRI2]	1.75 ± 0.077
ISLLKNRRKQSFVLNKN [RPN4]	3.52 ± 0.25
ISLRNNMFELAQQLVGV [SMC4]	1.24 ± 0.089
ISLSFSRPASYGYFSVG [SIR4]	1.78 ± 0.073
ISLYFNDILDELLCGMA [ECM29]	1.64 ± 0.1

Same assay, conditions: pdr5∆

Sequence	protein stability index
IDESMPDTAIDSQMDEA [GRR1]	3.08 ± 0.08
IDIDKLIQLGVKPLESS [SRP72]	2.87 ± 0.068
